This note sets out measurements from patent publication US20230310634A1 (IMMUNEXT, published 2023).

The target in assay [1] is T1, hIX50 (human VISTA ECD) (human, UniProt Q9H7M9 33-194, biotinylated in the pH ELISA (sites not given); not biotinylated when coated on the plate).
T1 construct: also called soluble VISTA; biotinylated hIX50
T1 sequence: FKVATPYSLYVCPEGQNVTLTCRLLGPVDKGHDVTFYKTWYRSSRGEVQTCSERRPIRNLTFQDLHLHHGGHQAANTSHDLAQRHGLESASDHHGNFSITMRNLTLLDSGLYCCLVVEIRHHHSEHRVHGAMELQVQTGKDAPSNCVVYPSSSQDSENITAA
The experiment in a line: ELISA: hIX50 coated at 1 ug/mL, antibody titrated, mouse anti-human kappa-HRP/TMB, OD450. In general terms: In an ELISA, binding on a coated surface is turned into a signal by an enzyme label.

Assay [2] deals with T1, hIX50 (human VISTA ECD). The experiment in a line: ELISA: INX200 coated at 1 ug/mL, biotinylated hIX50 titrated at pH 7.5, streptavidin-HRP/TMB; the concentration is that of hIX50.
In assay [3] the target is T1, hIX50 (human VISTA ECD). Nature of the assay: ELISA: hIX50 coated at 1 ug/mL, conjugate titrated, mouse anti-human kappa-HRP/TMB, OD450.
Another assay has as its target T2, human VISTA (human, UniProt Q9H7M9 33-194, limits assumed).
T2 sequence: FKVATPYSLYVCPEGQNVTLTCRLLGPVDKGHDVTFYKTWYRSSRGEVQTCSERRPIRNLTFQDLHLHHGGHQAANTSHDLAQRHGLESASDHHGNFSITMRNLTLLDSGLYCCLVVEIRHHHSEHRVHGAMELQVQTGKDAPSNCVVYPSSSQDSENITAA
Nature of the assay: SPR on a ProteOn instrument; format of antibody and antigen not stated.

B1: INX200 (antibody, V domains shown)
VH: QVQLVQSGAEVKKPGASVKVSCKASGYTFANYLIGWVRQAPGQRLEWMGDIYPGGGFISYNEKFKGRVTITRDTSASTAYMELSSLRSEDTAVYYCARRFDYGGYFFDYWGQGTLVTVSS
VL: DIVMTQSPLSLPVTPGEPASISCRSSQSIVHSNGNIYLEWYLQKPGQSPQLLIYKVSNRFSGVPDRFSGSGSGTDFTLKISRVEAEDVGVYYCFQGSHVPWTFGQGTKLEIK
modifications: Alexa Fluor 488 label in the flow-cytometry results (p-1139); unlabelled in the ELISAs
In general, EC50 (read off the curve) refers to the midpoint of the concentration-response curve. A higher EC50 (read off the curve) goes with a less potent agent. Consider B1, for which the figures for the “EC50 (read off the curve)” value with hIX50 (human VISTA ECD) [1] and with hIX50 (human VISTA ECD) [2] were ~8 ng/mL and ~0.7 ng/mL, respectively.

B2: INX200A (other)
VH: QVQLVQSGAEVKKPGASVKVSCKASGYTFANYLIGWVRQAPGQRLEWMGDIYPGGGFISYNEKFKGRVTITRDTSASTAYMELSSLRSEDTAVYYCARRFDYGGYFFDYWGQGTLVTVSS
VL: DIVMTQSPLSLPVTPGEPASISCRSSQSIVHSNGNIYLEWYLQKPGQSPQLLIYKVSNRFSGVPDRFSGSGSGTDFTLKISRVEAEDVGVYYCFQGSHVPWTFGQGTKLEIK
modifications: Linker/payload A (esterase sensitive linker with dexamethasone) on the reduced interchain disulfide cysteines, DAR about 8; these cysteines lie in the constant regions, which are not given here.
Regarding B2, the “EC50 (read off the curve)” value with hIX50 (human VISTA ECD) [3] was ~10 ng/mL.

B3: VSTB92 (antibody, V domains shown)
VH: QVQLVQSGAEVKKPGASVKVSCKASGYTFANYLIGWVRQAPGQRLEWMGDIYPGGGFISYNEKFKGRVTITRDTSASTAYMELSSLRSEDTAVYYCARRFDYGGYFFDYWGQGTLVTVSS
VL: DIVMTQSPLSLPVTPGEPASISCRSSQSIVHSNGNIYLEWYLQKPGQSPQLLIYKVSNRFSGVPDRFSGSGSGTDFTLKISRVEAEDVGVYYCFQGSHVPWTFGQGTKLEIK
By Kd is commonly meant the free concentration of one partner at which half of the binding sites on the other are occupied at equilibrium, for simple one-to-one binding. The low end stands for higher affinity, the high end for lower affinity. B3 yielded a Kd in the assay with human VISTA of 0.09 nM.

B4: VSTB103 (antibody, V domains shown)
VH: EVQLVQSGAEVKKPGESLKISCKGSGYSFTSYWIGWVRQMPGKGLEWMGIIYPGDSDTRYSPSFQGQVTISADKSISTAYLQWSSLKASDTAMYYCARDDALYGGYYLDYWGQGTLVTVSS
VL: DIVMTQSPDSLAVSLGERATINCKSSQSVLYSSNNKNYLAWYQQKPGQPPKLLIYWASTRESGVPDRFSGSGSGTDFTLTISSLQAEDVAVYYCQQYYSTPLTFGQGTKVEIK
Turning to B4, binding with human VISTA was characterised by a dissociation constant (Kd) of 0.64 nM.

B5: VSTB56 (antibody, V domains shown)
VH: QVQLVQSGAEVKKPGASVKVSCKASGYTFTSYWLHWVRQAPGQGLEWMGYIIPNTLHTDYNQKFKDRVTMTRDTSTSTVYMELSSLRSEDTAVYYCARLDGDYDYALDYWGQGTLVTVSS
VL: DIVMTQTPLSLSVTPGQPASISCRASESVEYYGTSFMQWYLQKPGQPPQLLIYTASNVESGVPDRFSGSGSGTDFTLKISRVEAEDVGVYYCQQSRKVPYTFGQGTKLEIK
On to B5, for which the dissociation constant Kd in the assay with human VISTA worked out at 0.02 nM.

B6: VSTB66 (antibody, V domains shown)
VH: QVQLVQSGAEVKKPGASVKVSCKASGYPFTGYFMHWVRQAPGQGLEWMGRINPYNGGTVYNQNFNDRVTMTRDTSTSTVYMELSSLRSEDTAVYYCARWTFDGLFMDYWGQGTTVTVSS
VL: DVVMTQSPLSLPVTLGQPASISCRASENVDKYGISFMNWFQQRPGQSPRRLIYATSNQGSGVPDRFSGSGSGTDFTLKISRVEAEDVGVYYCQQSKEDPYTFGQGTKLEIK
In the case of B6, binding with human VISTA was characterised by a dissociation constant (Kd) of 0.08 nM.
